Drawing on patent US9926355, this text covers fold enhancement of affinity against FGFR1c alone for one molecule.

Some results are limits rather than exact numbers.

This experiment deals with binary complex of FGFR1c ligand-binding domain with αKlotho ectodomain (murine; human) (UniProt O35082). Nature of the experiment: SPR; immobilized FGF23, αKlotho-FGFR1c complex compared with FGFR1c ligand-binding domain alone (FIGS. 10D and 10E).
binary complex of FGFR1c ligand-binding domain with αKlotho ectodomain (murine; human), sequence (O35082 35-982, form in doubt, chain 1 of 2): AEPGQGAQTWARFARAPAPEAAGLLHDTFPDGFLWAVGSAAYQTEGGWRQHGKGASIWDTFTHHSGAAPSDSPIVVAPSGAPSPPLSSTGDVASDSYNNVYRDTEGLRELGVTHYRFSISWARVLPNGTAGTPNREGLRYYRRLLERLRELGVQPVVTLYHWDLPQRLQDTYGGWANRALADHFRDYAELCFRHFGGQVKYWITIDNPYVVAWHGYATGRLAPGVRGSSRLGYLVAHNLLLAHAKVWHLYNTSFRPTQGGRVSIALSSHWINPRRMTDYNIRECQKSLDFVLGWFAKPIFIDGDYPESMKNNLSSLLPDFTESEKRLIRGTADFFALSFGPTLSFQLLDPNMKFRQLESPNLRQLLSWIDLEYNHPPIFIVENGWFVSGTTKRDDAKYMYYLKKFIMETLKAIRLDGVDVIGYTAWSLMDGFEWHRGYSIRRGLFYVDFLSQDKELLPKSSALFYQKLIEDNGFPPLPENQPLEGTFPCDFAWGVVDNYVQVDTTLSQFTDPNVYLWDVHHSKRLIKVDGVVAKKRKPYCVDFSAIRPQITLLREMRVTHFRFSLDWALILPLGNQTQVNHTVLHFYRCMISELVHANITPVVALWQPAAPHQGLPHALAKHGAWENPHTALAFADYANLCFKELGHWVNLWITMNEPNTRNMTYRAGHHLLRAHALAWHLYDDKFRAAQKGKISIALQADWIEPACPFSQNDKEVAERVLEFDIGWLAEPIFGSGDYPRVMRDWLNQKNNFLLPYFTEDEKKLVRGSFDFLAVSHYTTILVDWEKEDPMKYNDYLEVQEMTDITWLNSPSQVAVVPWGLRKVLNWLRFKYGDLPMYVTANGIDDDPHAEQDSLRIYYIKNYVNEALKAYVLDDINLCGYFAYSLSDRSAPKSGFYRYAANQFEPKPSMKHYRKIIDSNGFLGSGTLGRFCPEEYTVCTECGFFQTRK
binary complex of FGFR1c ligand-binding domain with αKlotho ectodomain (murine; human), sequence (P11362 142-365, form in doubt, chain 2 of 2, further chain): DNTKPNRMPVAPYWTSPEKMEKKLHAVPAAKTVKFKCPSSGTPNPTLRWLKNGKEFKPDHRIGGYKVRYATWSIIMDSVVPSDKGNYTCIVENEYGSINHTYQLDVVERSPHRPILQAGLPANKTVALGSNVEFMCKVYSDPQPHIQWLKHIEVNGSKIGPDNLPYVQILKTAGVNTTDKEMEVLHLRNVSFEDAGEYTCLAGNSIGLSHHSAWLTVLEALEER

B1: N-terminally hexahistidine-tagged, mature form of human FGF23 (Y25 to I251), R176Q/R179Q (ligand, not shown: small tags and cut ends)
chain: YPNASPLLGSSWGGLIHLYTATARNSYHLQIHKNGHVDGAPHQTIYSALMIRSEDAGFVVITGVMSRRYLCMDFRGNIFGSHYFDPENCRFQHQTLENGYDVYHSPQYHFLVSLGRAKRAFLPGMNPPPYSQFLSRRNEIPLIHFNTPIPRQHTQSAEDDSERDPLNVLKPRARMTPAPASCSQELPSAEDNSPMASDPLGVVRGGRVNTHAGGTGPEGCRPFAKFI
Take B1: the fold enhancement of affinity against FGFR1c alone is more than 20 fold.
